Tests used:
Test in all cases: phage ELISA, Fab adsorbed on plate, peptide-displaying phage added, anti-M13-HRP detection
[1] = molecular target: T1, Phage-displayed dodecapeptide of SEQ ID NO 7 (Ph.D.-12 library clone) (filamentous phage M13)
T1 construct: In the screening ELISA the peptide stood on whole M13 phage particles, not as a free peptide; not shown: cpIII coat protein of the filamentous phage M13; the dodecapeptide is at its N-terminus
T1 peptide: MQSPIVLPLSLS

[2] = molecular target: T2, Phage-displayed dodecapeptide of SEQ ID NO 5 (Ph.D.-12 library clone) (filamentous phage M13)
T2 construct: In the screening ELISA the peptide stood on whole M13 phage particles, not as a free peptide; not shown: cpIII coat protein of the filamentous phage M13; the dodecapeptide is at its N-terminus
T2 peptide: TMGFTAPRFPHY

[3] = molecular target: T3, Phage-displayed dodecapeptide of SEQ ID NO 8 (Ph.D.-12 library clone) (filamentous phage M13)
T3 construct: In the screening ELISA the peptide stood on whole M13 phage particles, not as a free peptide; not shown: cpIII coat protein of the filamentous phage M13; the dodecapeptide is at its N-terminus
T3 peptide: HHEPGAWLPLSP

[4] = molecular target: T4, Phage-displayed dodecapeptide of SEQ ID NO 6 (Ph.D.-12 library clone) (filamentous phage M13)
T4 construct: In the screening ELISA the peptide stood on whole M13 phage particles, not as a free peptide; not shown: cpIII coat protein of the filamentous phage M13; the dodecapeptide is at its N-terminus
T4 peptide: MQSPFTPHFAER

Measured: OD450nm

B1: Fab 68 (soluble Fab, heavy chain clone 6 and light chain clone 8 from a coronary plaque sample) (Fab, V domains shown)
VH: LEESGAEVKKPGENLKISCEASGYNFVNHWIGWVRQMPGRGLEWMGRIYPGDSETRFSPSFQGQVTISVDKTLSTASLQWNSLKTSDSATYYCVTLGRWSSWQGGALSWGQGT
VL: ELTQSPATVSVSPGERATLSCRASQSISFHLAWYQQKPGQAPSLLIYGTSTRATGIPARFSGSGSGTEFTLTISSLQSEDSAVYYCQQYHNWPPLTFGGGT
notes: also called Fab of the invention; Fabs of the present invention
> 1 OD450nm: all assays above

Source: patent publication US20120115741A1 (BRACCO IMAGING S P A, published 2012)
